# Laboratory results as given in patent publication US20120041175A1 (ROCKEFELLER UNIVERISTY, published 2012).
# B1: Bif1 (endogenous, mouse tissue) (other, UniProt Q9JK48 1-365, looked up)
# chain: MNIMDFNVKKLAADAGTFLSRAVQFTEEKLGQAEKTELDAHLENLLSKAECTKIWTEKIMKQTEVLLQPNPNARIEEFVYEKLDRKAPSRINNPELLGQYMIDAGTEFGPGTAYGNALIKCGETQKRIGTADRELIQTSALNFLTPLRNFIEGDYKTIAKERKLLQNKRLDLDAAKTRLKKAKAAETKSSSEQELRITQSEFDRQAEITRLLLEGISSTHAHHLRCLNDFVEAQMTYYAQCYQYMLDLQKQLGSFPSNYLSNNNQTSGTPVPYALSNAIGPSAQASTGSLVITCPSNLNDLKESSNNRKARVLYDYDAANSTELSLLADEVITVFSVVGMDSDWLMGERGNQKGKVPITYLELLN
# B2: Beclin 1-EGFP (fusion of mouse Beclin 1 and EGFP at the C-terminus) (other)
# chain: MEGSKASSSTMQVSFVCQRCSQPLKLDTSFKILDRVTIQELTAPLLTTAQAKPGETQEEEANSGEEPFIETRQDGVSRRFIPPARMMSTESANSFTLIGEASDGGTMENLSRRLKVTGDLFDIMSGQTDVDHPLCEECTDTLLDQLDTQLNVTENECQNYKRCLEILEQMNEDDSEQLQRELKELALEEERLIQELEDVEKNRKVVAENLEKVQAEAERLDQEEAQYQREYSEFKRQQLELDDELKSVENQVRYAQIQLDKLKKTNVFNATFHIWHSGQFGTINNFRLGRLPSVPVEWNEINAAWGQTVLLLHALANKMGLKFQRYRLVPYGNHSYLESLTDKSKELPLYCSGGLRFFWDNKFDHAMVAFLDCVQQFKEEVEKGETRFCLPYRMDVEKGKIEDTGGSGGSYSIKTQFNSEEQWTKALKFMLTNLKWGLAWVSSQFYNK
# notes: Expressed from a BAC transgene in beclin 1-/-; also called Beclin 1-GFP; not shown: EGFP inserted at the C-terminus in place of the stop codon
# Experiments:
# [1] = biological target: B2; experiment: anti-GFP affinity isolation of Beclin 1-EGFP from mouse tissues, mass spectrometry
# Method: (§1) Rubicon contains an N-terminal RUN (for RPIP8, UNC-14 and NESCA) domain, a C-terminal cysteine-rich domain, and a CCD domain in the central of the protein sequence. (D and E) HEK 293T cells were transfected with either N-terminal FLAG-tagged […] or C-terminal EGFP-tagged (E) ATG14L or Rubicon. Immunoprecipitation was performed with anti-FLAG (D) or anti-GFP antibody (E). The endogenous Beclin 1 co-immunoprecipitated were detected by Western blot analysis using anti-Beclin 1 antibody. WCL represents whole cell lysate, and IP represents immunoprecipitated.
# (§2) Affinity purification of Beclin 1 interacting proteins and mass spectrometric identification of these proteins were carried out as described in Wang et al. (2006), with slight modification. In brief, tissue extracts were obtained from both beclin 1^{+/-} and beclin 1^{-/-}; beclin 1-GFP/+ mice at 4 month of age by homogenizing 2 brains or 1 liver with a motor-driven homogenizer (speed 2.5, 12 strokes) in 4 ml buffer containing 0.32 M sucrose, 1 mM NaHCO₃, 20 mM HEPEs/pH 7.4, 1 mM MgCl₂, 0.25 mM CaCl₂, EDTA-free protease inhibitor cocktail, 200 μg/mL PMSF, pepstatin 4 μg/mL, and DNase I. The tissue extracts were centrifuged at 1,400 g for 10 minutes and the pellets were homogenized again in 4 ml buffer for 8 strokes and centrifuged again. Supernatants from the two homogenization steps were pooled, centrifuged at 750 g for 10 minutes. […]
# [2] = biological target: nPIST (endogenous, mouse tissue) (mouse, UniProt Q8BH60 2-463); experiment: as above
# Method: as §1, §2
Binder,binding result [1],binding result [2]
B1,no binding,–
B2,–,no binding
